“And” between values parts separate entries of the source, which are not always exact repeats. Identical values can stand only once.
What was measured:
[1] = biological target: the molecule itself; assay: SDS-PAGE without reduction and boiling
[2] = biological target: T1, soluble NiVMY G ectodomain used for structural determination (residues 72-602, His tag) (Nipah virus Malaysia (NiVMY), UniProt Q9IH62); assay: cryo-EM structure; details: both partners purified
T1 construct: source: Expi293F, transient transfection, purified

NiVMY G ectodomain = NiVMY G ectodomain (Nipah virus, Malaysia (GenBank …, UniProt E2II03)); assay: cell-based or functional assay
HeV G ectodomain = HeV G ectodomain (Hendra virus (isolate …, UniProt O89343)); assay: cell-based or functional assay
NiVBD G ectodomain = NiVBD G ectodomain (Nipah virus, Bangladesh (GenBank …, UniProt Q4VCP5, strain)); assay: cell-based or functional assay

HeV G ectodomain (Hendra virus, sequence (O89343 71-604): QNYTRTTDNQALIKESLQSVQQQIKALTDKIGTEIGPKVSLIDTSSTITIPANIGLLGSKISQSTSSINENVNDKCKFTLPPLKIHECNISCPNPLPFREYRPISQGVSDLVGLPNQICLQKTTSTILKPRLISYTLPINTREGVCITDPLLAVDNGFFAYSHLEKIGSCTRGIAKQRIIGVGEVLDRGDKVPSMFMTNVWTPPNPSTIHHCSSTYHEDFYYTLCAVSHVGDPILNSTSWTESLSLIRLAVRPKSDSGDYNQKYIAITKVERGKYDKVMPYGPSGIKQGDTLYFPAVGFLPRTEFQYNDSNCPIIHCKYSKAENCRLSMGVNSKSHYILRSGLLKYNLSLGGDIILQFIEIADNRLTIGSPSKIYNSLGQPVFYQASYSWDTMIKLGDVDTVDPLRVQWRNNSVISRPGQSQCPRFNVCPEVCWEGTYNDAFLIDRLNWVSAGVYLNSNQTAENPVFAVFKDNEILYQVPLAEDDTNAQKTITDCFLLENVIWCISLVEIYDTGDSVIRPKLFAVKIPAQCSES

B1: NiVMY G ectodomain (residues 72-602), His-tagged, used for structural determination (domain or fragment)
chain: NYTRSTDNQAVIKDALQGIQQQIKGLADKIGTEIGPKVSLIDTSSTITIPANIGLLGSKISQSTASINENVNEKCKFTLPPLKIHECNISCPNPLPFREYRPQTEGVSNLVGLPNNICLQKTSNQILKPKLISYTLPVVGQSGTCITDPLLAMDEGYFAYSHLERIGSCSRGVSKQRIIGVGEVLDRGDEVPSLFMTNVWTPPNPNTVYHCSAVYNNEFYYVLCAVSTVGDPILNSTYWSGSLMMTRLAVKPKSNGGGYNQHQLALRSIEKGRYDKVMPYGPSGIKQGDTLYFPAVGFLVRTEFKYNDSNCPITKCQYSKPENCRLSMGIRPNSHYILRSGLLKYNLSDGENPKVVFIEISDQRLSIGSPSKIYDSLGQPVFYQASFSWDTMIKFGDVLTVNPLVVNWRNNTVISRPGQSQCPRFNTCPEICWEGVYNDAFLIDRINWISAGVFLDSNQTAENPVFTVFKDNEILYRAQLASEDTNAQKTITNCFLLKNKIWCISLVEIYDTGDNVIRPKLFAVKIPEQCT
For B1, the “stoichiometry N” value [1] was 4 and 2.

B2: 1E5 Fab (Fab, V domains shown)
VH: QVQLQESGPGVVKPSETLSLTCAVSGGSISDTYRWSWIRQPPGKGLEWIGYIYGSATSTYYNPSLSSRVTISKDMSKNQFSLNLNSVTAADTAVYYCARDYQYYYSGSYPTPHNWFDVWGPGVLVTVSS
VL: DIQMTQSPSSLSASVGDRVTITCRASQGIIDYLSWYQQKPGKAPKLLISTASNLESGVPSRFSGSGSGTEFTLTISSLQPEDFATYSCLQGYTTPYTFGQGTKVEIK
notes: source: Expi293F, transient transfection, purified
B2: binds [2].

B3: 1E5 (antibody, V domains shown)
VH: QVQLQESGPGVVKPSETLSLTCAVSGGSISDTYRWSWIRQPPGKGLEWIGYIYGSATSTYYNPSLSSRVTISKDMSKNQFSLNLNSVTAADTAVYYCARDYQYYYSGSYPTPHNWFDVWGPGVLVTVSS
VL: DIQMTQSPSSLSASVGDRVTITCRASQGIIDYLSWYQQKPGKAPKLLISTASNLESGVPSRFSGSGSGTEFTLTISSLQPEDFATYSCLQGYTTPYTFGQGTKVEIK
In the case of B3, the “IC50 of neutralisation of authentic NiV-MY (plaque reduction; Fig. 2o)” value (NiVMY G ectodomain) is reported as 0.012 µg/mL, the “IC50 of neutralisation of authentic HeV (plaque reduction; Fig. 2o)” value (HeV G ectodomain) is reported as 0.147 µg/mL and the “IC50 of neutralisation of authentic NiV-BD (plaque reduction; Fig. 2o)” value (NiVBD G ectodomain) is reported as 0.0125 µg/mL.

Reference: article PMC11109247 (Nature Communications, 2024)
